Assay results published in US20180094059A1.

Molecular target: antigen- and TRAIL receptor-expressing Colo205 cells
Assay: flow cytometry, Colo205 cells

B1: scFvhu225-EHD2-scTRAIL3-… (protein)
chain: DYKDDDDKGGGGSGTEVQLVESGGGLVQPGGSLRLSCAASGFSLTNYGVHWVRQAPGKGLEWLGVIWSGGNTDYNTPFTSRFTISRDNSKNTLYLQMNSLRAEDTAVYYCARALTYYDYEFAYWGQGTTVTVSSGGGGSGGGGSGGGGSDIQLTQSPSFLSASVGDRVTITCRASQSIGTNIHWYQQKPGKAPKLLIKYASESISGVPSRFSGSGSGTEFTLTISSLQPEDFATYYCQQNNNWPTTFGAGTKLEIKRAAAGGSGGDFTPPTVKILQSSCDGGGHFPPTIQLLCLVSGYTPGTINITWLEDGQVMDVDLSTASTTQEGELASTQSELTLSQKHWLSDRTYTCQVTYQGHTFEDSTKKCADSNGGSGGASSGGGPQRVAAHITGTRGRSNTLSSPNSKNEKALGRKINSWESSRSGHSFLSNLHLRNGELVIHEKGFYYIYSQTYFRFQEEIKENTKNDKQMVQYIYKYTSYPDPILLMKSARNSCWSKDAEYGLYSIYQGGIFELKENDRIFVSVTNEHLIDMDHEASFFGAFLVGGGPQRVAAHITGTRGRSNTLSSPNSKNEKALGRKINSWESSRSGHSFLSNLHLRNGELVIHEKGFYYIYSQTYFRFQEEIKENTKNDKQMVQYIYKYTSYPDPILLMKSARNSCWSKDAEYGLYSIYQGGIFELKENDRIFVSVTNEHLIDMDHEASFFGAFLVGGGPQRVAAHITGTRGRSNTLSSPNSKNEKALGRKINSWESSRSGHSFLSNLHLRNGELVIHEKGFYYIYSQTYFRFQEEIKENTKNDKQMVQYIYKYTSYPDPILLMKSARNSCWSKDAEYGLYSIYQGGIFELKENDRIFVSVTNEHLIDMDHEASFFGAFLVG
For B1, the EC50 was 0.58 nM.

B2: dsDb3M6-scTRAIL3-… (protein)
chain: DYKDDDDKGGGGSGTEVQLLESGGGLVQPGGSLRLSCAASGFTFSHYVMAWVRQAPGKCLEWVSSISSSGGWTLYADSVKGRFTISRDNSKNTLYLQMNSLRAEDTAVYYCTRGLKMATIFDYWGQGTLVTVSSGGGGSQSALTQPASVSGSPGQSITISCTGTSSDVGSYNVVSWYQQHPGKAPKLIIYEVSQRPSGVSNRFSGSKSGNTASLTISGLQTEDEADYYCSSYAGSSIFVIFGCGTKVTVLAAAGGSGGGPQRVAAHITGTRGRSNTLSSPNSKNEKALGRKINSWESSRSGHSFLSNLHLRNGELVIHEKGFYYIYSQTYFRFQEEIKENTKNDKQMVQYIYKYTSYPDPILLMKSARNSCWSKDAEYGLYSIYQGGIFELKENDRIFVSVTNEHLIDMDHEASFFGAFLVGGGPQRVAAHITGTRGRSNTLSSPNSKNEKALGRKINSWESSRSGHSFLSNLHLRNGELVIHEKGFYYIYSQTYFRFQEEIKENTKNDKQMVQYIYKYTSYPDPILLMKSARNSCWSKDAEYGLYSIYQGGIFELKENDRIFVSVTNEHLIDMDHEASFFGAFLVGGGPQRVAAHITGTRGRSNTLSSPNSKNEKALGRKINSWESSRSGHSFLSNLHLRNGELVIHEKGFYYIYSQTYFRFQEEIKENTKNDKQMVQYIYKYTSYPDPILLMKSARNSCWSKDAEYGLYSIYQGGIFELKENDRIFVSVTNEHLIDMDHEASFFGAFLVG
B2 showed an EC50 of 32.5 nM.
